Test results: the supplement of paper PMC9170038

Tested on: MS2 coat protein
Assay: apparent KD of MS2 coat protein; designed switch direction (-1 OFF switch, 1 ON switch): 1; higher = weaker reporter binding
How it was run: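 Apparent KD, taken as the median over clusters for each design, was obtained by curve-fitting normalised cluster fluorescence. Designed RNA switches had been transcribed on Illumina chips by stalled E. coli RNA polymerase and titrated with SNAP-549-labelled MS2 coat protein, doubling from 0.7 or 1.5 nM to 3 µM.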

[1] = input ligand: microRNA oligo, concentration not stated
[2] = Eterna round: R95, input ligand: microRNA oligo, concentration not stated
[3] = Eterna round: R95, input ligand: FMN 200 uM
[4] = Eterna round: R95, input ligand: none

Sequence	apparent KD of MS2 coat protein (input ligand: FMN 200 uM) [nM]	apparent KD of MS2 coat protein [1] [nM]	apparent KD of MS2 coat protein (input ligand: none) [nM]	apparent KD of MS2 coat protein [2] [nM]	apparent KD of MS2 coat protein [3] [nM]	apparent KD of MS2 coat protein [4] [nM]
AUUAAACAUGAGGAUCACCCAUGUCAACAAAGUCGAGGAUAUGGGCAAAUAAAAUAAGUACCAGAAGGCGAAUAAU [salish99_ss1_r3_066] (Eterna round: R96, puzzle: Same State 1)	21.4	66.1	103			
AUUAAACAUGAGGAUCACCCAUGUCAACAAAGUCGAGGAUAUGGGCAAAUAAAAUAAGUACCAGAAGGCGAAUAAU [salish99_ss1_r3_066] (puzzle: Same State 1)				149		
AUUAAACAUGAGGAUCACCCAUGUCAACAAAGUCGAGGAUAUGGGCAAAUAAAAUUAGAACCAGAAGGCGAAUAAU [salish99_ss1_r3_063] (puzzle: Same State 1)				167	29.2	229
AUUAAACAUGAGGAUCACCCAUGUCAACAAAGUCGAGGAUAUGGGCAAAUUAUAUAAUAACCAGAAGGCGAAUAAU [salish99_ss1_r3_083] (puzzle: Same State 1)				18.9	15.2	14.2
AUUAAACAUGAGGAUCACCCAUGUCUACAAAGUCGAGGAUAUGGGCAAAUAAAAUAAGAACCAGAAGGCGAAUAAU [salish99_ss1_r3_072] (puzzle: Same State 1)				613	60.3	533
AUUAAUUAAUUAAUACAUGAGGAUCACCCAUGUAAUAAGAUCAAGGAUAUCAGCUCGUUUAGAGCUGAGAAGGUGAUCACAUGU [SSNG3/17-B3] (Eterna round: R96, puzzle: Same State NG 3)		246				
AUUACUAAUGCAGGAUAUGAUUAACAUGAGGAUCACCCAUGUGGUGUUGUGAGUAAGGAGAGUGAUCAGAAGGGCAUUUUUUUU [JMF's solution 29] (Eterna round: R96, puzzle: Same State NG 2)	518	362	325			
AUUAGUUGCGGGCAGGAUAUGUAUUAAAAUACAUGAGGAUCACCCAUGUGCGGGUAUAACACCCGACAGAAGGGCCAAUCGCGAC [Mat - Same State 2 - Mod of UCT - D93] (puzzle: Same State 2)				250	25.4	409
AUUAUUAAUGCAGGAUAUGAUUAACAUGAGGAUCACCCAUGUGGUGUUGUGAGUAAGGAGAGUGAUCAGAAGGGCAUUUUUAUU [JMF's solution 13] (Eterna round: R96, puzzle: Same State NG 2)	1020	353	808			
AUUAUUUAUGCAGGAUAUGAUUAACAUGAGGAUCACCCAUGUGGUGUUGUGAGUAAGGAGAGUGAUCAGAAGGGCAUUUUAUUU [JMF's solution 50] (Eterna round: R96, puzzle: Same State NG 2)	1560	522	571			
AUUAUUUAUGCAGGAUAUGAUUAACAUGAGGAUCACCCAUGUGGUGUUGUGAGUAAGGAGAGUGAUCAGAAGGGCAUUUUGUUU [JMF's solution 51] (Eterna round: R96, puzzle: Same State NG 2)	794	321	451			
AUUAUUUAUGCAGGAUAUGAUUAACAUGAGGAUCACCCAUGUGGUGUUGUGAGUAAGGAGAGUGAUCAGAAGGGCAUUUUUAUU [JMF's solution 52] (Eterna round: R96, puzzle: Same State NG 2)	627	493	568			
AUUAUUUAUGCAGGAUAUGAUUAACAUGAGGAUCACCCAUGUGGUGUUGUGAGUAAGGAGAGUGAUCAGAAGGGCAUUUUUGUU [JMF's solution 53] (Eterna round: R96, puzzle: Same State NG 2)	992	438	657			
AUUAUUUCAUGAGGAUAUGGCACCUUAUUGGUGCCAGAAGGCAUGUCAUUAGACAUGAGGAUCACCCAUGUAUUAUAUUAUAUA [Fiskers NG1ss - 13] (Eterna round: R96, puzzle: Same State NG 1)	41.5	392	534			
AUUAUUUGUGCAGGAUAUGAUUAACAUGAGGAUCACCCAUGUGGUGUUGUGAGUAAGGAGAGUGAUCAGAAGGGCAUUUUUUUU [JMF's solution 61] (Eterna round: R96, puzzle: Same State NG 2)	590	476	478			
AUUCGUUUGAUAGGAUAUCACUUUACAUGAGGAUCACCCAUGUUCACCACGCUGGUCCCUUAUACUGAGAAGGAUCUUGAUGAC [JR_SSNG2_Sub008] (Eterna round: R96, puzzle: Same State NG 2)	107	64.5	95.7			

Sequence	apparent KD of MS2 coat protein (input ligand: FMN 200 uM) [nM]	apparent KD of MS2 coat protein [1] [nM]	apparent KD of MS2 coat protein (input ligand: none) [nM]	apparent KD of MS2 coat protein [2] [nM]	apparent KD of MS2 coat protein [3] [nM]	apparent KD of MS2 coat protein [4] [nM]
AUUGCUUACGCAGGAUAUGAUGCGAAAAUUGCGUCAGAAGGGUGAAGUGACUCAUUGCAACAGGACAUGAGGAUCACCCAUGUC [SameState NG1 #90] (Eterna round: R96, puzzle: Same State NG 1)	184	305	708			
AUUUUCAAUGCAGGAUAUGAUUAACAUGAGGAUCACCCAUGUGGUGUUGUGAGUAAGGAGAGUGAUCAGAAGGGCAUUUUUUUU [JMF's solution 97] (Eterna round: R96, puzzle: Same State NG 2)	428	371	486			
AUUUUUAAUGCAGGAUAUGAUUAACAUGAGGAUCACCCAUGUGGUGUUGUGAGUAAGGAGAGUGAUCAGAAGGGCAUUUUUUAU [JMF's solution 86] (Eterna round: R96, puzzle: Same State NG 2)	453	702	441			
AUUUUUAAUGCAGGAUAUGAUUAACAUGAGGAUCACCCAUGUGGUGUUGUGAGUAAGGAGAGUGAUCAGAAGGGCAUUUUUUCA [SS-NG2-LRO01] (Eterna round: R96, puzzle: Same State NG 2)	838	495	533			
CAAGCUUGGGUCUUCCCGCUCGUCUACAAACAUGAGGAUCACCCAUGUAUACUCUUCGCAUCAAUUCUAUCUCUUGG [Onraenbi] (Eterna round: R96, puzzle: Sensor for hsa-mir-208a)	176	23.1	163			
CAAGCUUGGGUCUUCCCGCUCGUCUACAAACAUGAGGAUCACCCAUGUAUACUCUUCGCAUCAAUUCUAUCUCUUGG [Onraenbi] (puzzle: Sensor for hsa-mir-208a)				23.3	210	272
CAGAGCCCAUGGGCCUGACAUGAGGAUCACCCAUGUGGCUUUGAGGAUAUAAGCGGAAACACCACUUAGAAGGCGAAGCCUAAC [Bequedbi] (Eterna round: R96, puzzle: Same State NG 3)	489	37.1	11.3			
CAGCACUAUCGAGAGGAUAUGCGGUGAUGGACAUGAGGAUCACCCAUGUUAGCGGUAGCAUCACGGCAGAAGGCUCUGCUGCUGC [Soteed Omei mod 39] (Eterna round: R96, puzzle: Same State 2)	19	21.5	28.5			
CAGCACUAUCGAGAGGAUAUGCGGUGAUGGACAUGAGGAUCACCCAUGUUAGCGGUAGCAUCACGGCAGAAGGCUCUGCUGCUGC [Soteed Omei mod 39] (puzzle: Same State 2)				28.8	20.4	37.4
CAGCUCGUGUGAGGAUAUGCCGCCGUUUCGGCUGCAGAAGGUGCUACGUUACAUGAGGAUCACCCAUGUCUCUGUUGUUUCGUU [salish99_SSNG1_r04_950] (Eterna round: R96, puzzle: Same State NG 1)		18.2				
CAGUACAUUCAAGGAUAUUCUCCAUGGAAAGUAGAAGAAGGUGAAACAUGAGGAUCACCCAUGUAGAAAGGAACAUUCGUACUG [Eternabot solution 34] (Eterna round: R96, puzzle: Same State NG 1)	181	147	310			
CAUCUCCCUUUUACAUGAGGAUCACCCAUGUUUUUAUAUUGAGAGGAUAUCGUAUUUAGAAACAUCGAGAAGGCUCAUUUGUAU [JR_SSNG3_Sub072] (Eterna round: R96, puzzle: Same State NG 3)	83.2	89.1	153			
CCAACAUACAAUUUAAGAUCACAUGAGGAUCACCCAUGUAUGCAGGAUAUCAGCUCGAUUAGAGCUGAGAAGGGCAAUUUAAUU [SSNG3/1-A2] (Eterna round: R96, puzzle: Same State NG 3)	89.6	151	216			
CCGAUGCUUAUAAAACAUGAGGAUCACCCAUGUGAGACACAUGAGGAUAUGCAGGUCAAAGACUUGCAGAAGGCAUAGCGUCGG [JL SSNG3 3.88] (Eterna round: R96, puzzle: Same State NG 3)		360				
CCGAUGGUAUACUAGGAUAUGGGCGCCCUUACAUGAGGAUCACCCAUGUUUACACAAAUCCGCGGCCAGAAGGAGUUCAUGGGAG [Orgere] (Eterna round: R96, puzzle: Same State 2)	134	85.6	112			
